In paper PMC6754406, “Ran pathway-independent regulation of mitotic Golgi disassembly by Importin-α” (Nature Communications, 2019):

B1: GM130: GM130 (recombinant N-terminal region), variant not specified at the place (protein)
chain: MWPQPRLPPRPAMSEETRQSKLAAAKKKLREYQQRNSPGVPTGAKKKKKIKNGSNPETTTSGGCHSPEDTPKDNAATLQPSDDTVLPGGVPSPGASLTSMAASQNHDADNVPNLMDETKTFSSTESLRQLSQQLNGLVCESATCVNGEGPASSANLKDLESRYQQLAVALDSSYVTNKQLNITIEKLKQQNQEITDQLEEEKKECHQKQGALREQLQVHIQTIGILVSEKAELQTALAHTQHAARQKEGESEDLASRLQYSRRRVGELERALSAVSTQQKKADRYNKELTKERDALRLELYKNTQSNEDLKQEKSELEEKLRVLVTEKAGMQLNLEELQKKLEMTELLLQQFSSRCEAPDANQQLQQAMEERAQLEAHLGQVMESVRQLQMERDKYAENLKGESAMWRQRMQQMSEQVHTLREEKECSMSRVQELETSLAELRNQMAEPPPPEPPAGPSEVEQQLQAEAEHLRKELEGLAGQLQAQVQDNEGLSRLNREQEERLLELERAAELWGEQAEARRQILETMQNDRTTISRALSQNRELKEQLAELQSGFVKLTNENMEITSALQSEQHVKRELGKKLGELQEKLSELKETVELKSQEAQSLQQQRDQYLGHLQQYVAAYQQLTSEKEVLHNQLLLQTQLVDQLQQQEAQGKAVAEMARQELQETQERLEAATQQNQQLRAQLSLMAHPGEGDGLDREEEEDEEEEEEEAVAVPQPMPSIPEDLESREAMVAFFNSAVASAEEEQARLRGQLKEQRVRCRRLAHLLASAQKEPEAAAPAPGTGGDSVCGETHRALQGAMEKLQSRFMELMQEKADLKERVEELEHRCIQLSGETDTIGEYIALYQSQRAVLKERHREKEEYISRLAQDKEEMKVKLLELQELVLRLVGDRNEWHGRFLAAAQNPADEPTSGAPAPQELGAANQQGDLCEVSLAGSVEPAQGEAREGSPRDNPTAQQIMQLLREMQNPRERPGLGSNPCIPFFYRADENDEVKITVI
B2: GM130-WT: wild type GM130 N-terminal region (a.a. 1-85) (protein)
chain: B1 chain

Columns and labels:
[1] = biological target: p115-CTD (a.a. 780–930); test: Isothermal titration calorimetry (ITC), p115-CTD; details: ITC (MicroCal iTC200), 25 °C, 20 mM HEPES pH 7.4, 1 mM DTT, 50 mM NaCl; one-sites binding model
Excerpt: Phosphorylation of GM130 on Ser-25 is correlated with p115 dissociation, with this process appearing to be specific to mitosis and being responsible for reduction of p115-mediated vesicle fusion to Golgi membranes[5]–[7],[9],[10]. The N-terminal region of GM130 and the p115 C-terminus interact[11],[12], so we purified recombinant proteins containing these two regions and then assessed their binding affinity by isothermal titration calorimetry (ITC). The wild type GM130 N-terminal region (a.a. 1-85; hereafter GM130-WT) directly bound p115 (a.a. 780–930; hereafter p115-CTD) (Fig. 1a). Furthermore, we examined if GM130 phosphorylation reduces the binding affinity for p115. […] We found in competition-binding assays that p115-CTD pulldown by GST-GM130-S25D was reduced when we added increasing amounts of Importin-α lacking the IBB domain (a.a. 70–524; hereafter Importin-α(ΔIBB)) (Fig. 1c). […]
To purify p115 (a.a. 780–930), cells containing p115 (a.a. […]) were resuspended in a buffer containing 50 mM K-phosphate (pH 7.4), 150 mM NaCl, and 2 mM β-mercaptoethanol. […] Fractions containing p115 protein were pooled and loaded into SEC (Superdex 75 16/600) and analyzed by SDS–PAGE. […]
Binding affinities of different GM130 proteins to Importin-α and Importin-β were measured by ITC (MicroCal iTC200). […] Protein concentrations were determined spectrophotometrically with respective extinction coefficients. […]

[2] = system: Importin-β (HEK293T cell lysate); test: GST pulldown of Importin-β from HEK293T cell lysates; type: binding
Method: HEK293T cells were lysed in RIPA buffer containing 50 mM Tris, 150 mM NaCl, 1% NP-40, 1% sodium deoxycholate, 0.1% SDS, 1 mM phenylmethyl sulphonyl fluoride, 1 μg/ml aprotinin, and 1 μg/ml leupeptin. Supernatants were collected after centrifugation at 21,000×g for 10 min at 4 °C. Cell lysates were incubated with 5 µM of GST-GM130-WT, GST-GM130-S25D, or GST-GM130-S25D/K34A, and glutathione-coupled sepharose beads (GE Healthcare). After three pre-washes with buffer containing 150 mM NaCl, proteins were eluted using a buffer containing 50 mM of reduced glutathione. Eluted proteins were analyzed by SDS–PAGE, followed by Western blotting using antibodies against GM130 (Abcam ab52649), Importin-α (R&D Systems MAB6207), and Importin-β (Abcam ab2811). Uncropped scans of Western blots are provided in Supplementary Fig. 7.
Sup ple me ntary Figure 3. GM 130 is resistant to IBB displacement upon in teracting with […]
a-d, a, SE C (Superdex 200) elution profile for full-length Importin-α•GST-GM130-S25D (re d line ), full-length Importin-α (blue line), an d G ST-GM130-WT (green line). […] Th e v o i d volum e (Vo) is indicated. e, Western blotting analysis of Importin-α pull-down by GST-GM130-WT and GST-GM130-S25D from HEK293T ce l l l ys at es. […] Data repres ent mean ± standard deviation from three independent experiments. […]

[3] = system: Importin-α (a.a. 70–498); test: CD spectra thermal melting assay of complexes with Importin-α; type: physicochemical; details: CD at 222 nm, 20 to 75 °C, 0.2 mg/ml, 20 mM HEPES pH 7.4, 50 mM NaCl, 3 mM DTT; average of three scans; complex with Importin-α (a.a. 70–498)
Method: The CD spectra of the GM130-WT(1–48)•Importin-α (a.a. 70–498), GM130-S25D(1–48)•Importin-α (a.a. 70–498), and GM130-NLS phospho-S25 (a.a. 13–38)•Importin-α (a.a. 70–498) complexes were recorded using an AVIV CD400 spectrometer. Thermal melting temperatures were determined by measuring the ellipticity at a wavelength of 222 nm as a function of temperature from 20 to 75 °C. The protein concentration used in the CD measurements was 0.2 mg/ml in a buffer of 20 mM HEPES (pH 7.4), 50 mM NaCl, and 3 mM DTT. Measurements were taken three times and averaged.

[4] = system: p115-CTD; test: Competition binding assay, p115-CTD remaining on GST-GM130 in presence of Importin-α FL; details: 40 μM Importin-α FL; three independent experiments
Method: Fig. 3 GM130 interacts with full-length Importin-α. a, b ITC titration curves (upper) and binding isotherms (lower) of Importin-α FL with GM130-NLS WT (a) and GM130-NLS phospho-S25 (b). Kd values are indicated. c Pulldown assays of Importin-α FL with GM130-WT or GM130-S25D. GST-tagged GM-130-WT or GM130-S25D was incubated with Importin-α FL. GST-bound samples were analyzed by SDS–PAGE and stained with Coomassie blue. d Competition binding assay. p115-CTD was incubated with either GST-GM130-WT or GST-GM130-S25D in the presence of indicated concentrations of Importin-α FL. Samples pulled down by GST beads were analyzed by SDS–PAGE and stained with Coomassie blue. e, f Band intensities of Importin-α FL and p115-CTD from the SDS–PAGE gels in d were quantified and normalized by GST-GM130 intensity. Quantitative plots show normalized Importin-α FL intensities (e) and percent p115-CTD remaining on GM130 (f).
To examine whether Importin-α FL also competes with p115-CTD for GM130 binding, we carried out competition binding assays in the presence of Importin-α FL, p115-CTD, and GM130. […] Moreover, we observed a ~2-fold increase in Importin-α FL pulldown by the phosphomimetic mutant (GM130-S25D) compared to wild-type GM130 (40 μM Importin-α FL; Fig. 3d, e). […]

[5] = biological target: T1, Importin-β (Homo sapiens, UniProt Q14974); test: GST pulldown of Importin-β with RanQ69L (dissociation); type: binding; details: GM130:RanQ69L:Importin 1:4:1; three independent experiments
T1 construct: GST (N, cleaved yes); made in house; host or cells: Escherichia coli Rosetta
T1 sequence (Q14974 whole entry): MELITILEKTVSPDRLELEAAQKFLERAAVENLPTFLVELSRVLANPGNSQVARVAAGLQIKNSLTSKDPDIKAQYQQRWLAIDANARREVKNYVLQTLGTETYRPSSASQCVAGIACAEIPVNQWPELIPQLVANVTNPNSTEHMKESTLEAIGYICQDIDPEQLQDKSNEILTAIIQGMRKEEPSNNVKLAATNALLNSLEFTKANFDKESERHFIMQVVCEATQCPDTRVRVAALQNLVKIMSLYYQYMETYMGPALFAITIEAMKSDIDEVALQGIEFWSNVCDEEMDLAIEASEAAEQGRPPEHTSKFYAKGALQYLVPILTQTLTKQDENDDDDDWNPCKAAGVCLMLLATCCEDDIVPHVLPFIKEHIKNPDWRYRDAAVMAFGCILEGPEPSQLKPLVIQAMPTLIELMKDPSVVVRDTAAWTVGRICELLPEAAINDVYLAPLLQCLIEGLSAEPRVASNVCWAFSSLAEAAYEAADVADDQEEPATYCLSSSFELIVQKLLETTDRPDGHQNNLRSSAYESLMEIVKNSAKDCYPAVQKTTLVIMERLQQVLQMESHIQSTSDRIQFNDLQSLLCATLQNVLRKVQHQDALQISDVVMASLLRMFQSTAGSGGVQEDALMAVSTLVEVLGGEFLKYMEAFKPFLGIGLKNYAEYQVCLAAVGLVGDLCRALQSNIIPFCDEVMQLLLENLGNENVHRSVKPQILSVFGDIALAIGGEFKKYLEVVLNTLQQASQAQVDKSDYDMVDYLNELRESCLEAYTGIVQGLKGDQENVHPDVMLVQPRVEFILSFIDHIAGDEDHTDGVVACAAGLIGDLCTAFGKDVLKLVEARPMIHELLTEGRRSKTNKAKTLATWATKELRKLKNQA
Method: Fig. 4 Ran and a phosphate moiety repress GM130 and Importin-β interaction. a SEC (Superdex 200) elution profiles for the Importin-β•GST-GM130-WT complex (black line), Importin-β (gray line), and GST-GM130-WT (light gray line). The void volume (Vo) is indicated. b–d The peak fractions of the Importin-β•GST-GM130-WT complex (b), Importin-β (c), and GST-GM130-WT (d) were analyzed by SDS–PAGE and stained with Coomassie blue. e, f ITC titration curves (upper) and binding isotherms (lower) of Importin-β with GM130-NLS WT (e) and GM130-NLS phospho-S25 (f). Kd values are indicated. g Competition binding assay. GST-GM130-S25D and Importin-β were incubated with indicated concentrations of GFP-IBB. Samples pulled down by GST beads were analyzed by SDS–PAGE and stained with Coomassie blue. […] GST-bound samples were analyzed by SDS–PAGE and stained with Coomassie blue. i, k Band intensities of Importin-α or Importin-β from the SDS–PAGE gels in h, j were used to determine averages of bound protein. […]
A 1:1 molar ratio of GST-GM130-WT or mutant GM130 and Importin-α FL was incubated with glutathione-coupled sepharose beads (GE Healthcare). After pre-washing with 150 mM NaCl, proteins were eluted by a buffer containing 50 mM reduced glutathione and analyzed by SDS–PAGE. […]

Row | Molecule | Kd [1] [nM] | Importin-α pulled down more than Importin-β [2] | Western blot signal of Importin-β reduced compared to Importin-α FL ([2]; same acquisition conditions) | Tm [3] | p115-CTD remaining on GM130 [4] | release of Importin-β from Importin-β•GM130 complex by RanQ69L [5]
1 | B1 | ~980 | ~ 10 -fold | more than 10 -fold |  |  | 
2 | B2 |  |  |  | ~ 44 °C | ~ 38% | ~ 47%
